B1: r-apoM-bound S1P: S1P complexed with equi-molar recombinant apoM (protein, UniProt O95445 1-188, looked up)
Apolipoprotein M: MFHQIWAALLYFYGIILNSIYQCPEHSQLTTLGVDGKEFPEVHLGQWYFIAGAAPTKEELATFDPVDNIVFNMAAGSAPMQLHLRATIRMKDGLCVPRKWIYHLTEGSTDLRTEGRPDMKTELFSSSCPGGIMLNETGQGYQRFLLYNRSPHPPEKCVEEFKSLTSCLDSKAFLLTPRNQEACELSNN
modifications: complexed with S1P
B2: r-apoM without S1P: recombinant apoM not complexed with S1P (protein, UniProt O95445 1-188, looked up)
Apolipoprotein M: B1 Apolipoprotein M

Legend:
S1P1 receptor = biological target: T1, S1P1 receptor (Homo sapiens, UniProt P21453); experiment: S1P1 internalization in HEK293 cells stably expressing S1P1-GFP; assay type: cell-based; conditions: stimulated 1 h; HDL 100 μg/ml; S1P complexes 100 nM
T1 construct: expressed in transfected cells
Protocol: (§1) FIG. 4. ApoM-bound S1P activates S1P1-mediated intracellular signaling pathways and affects migration of HUVEC. (A) Confocal microscopy of HEK293 cells stably expressing S1P1-GFP. Cells were serum starved, stimulated for 1 h with indicated ligands, fixed and imaged. ApoM^+HDL (equivalent to ˜100 nM S1P as determined by LC/MS/MS) or ApoM^−HDL was used at 100 μg/ml. Fatty acid free BSA and r-apoM were complexed with S1P and used at the final concentration of 100 nM (equimolar for both protein and lipid). Scale bar, 20 μm. […] Activation of p44/42, and Akt was examined by western blot analysis using phospho-specific antibodies. (C) HUVEC were serum starved and pre-treated with 1 μM VPC44116 for 30 min where indicated and subjected to migration assay with 10 μg/ml apoM^+HDL (10 nM S1P) or 10 μg/ml apoM^−HDL or 10 nM albumin-S1P. Data are mean±SD, n=3. * p<0.01. (D) Microscopy of HUVEC that were serum starved and stimulated with 100 μg/ml apoM^+HDL, apoM^−HDL, 100 nM albumin-S1P, r-apoM-S1P or 100 nM S1P-free r-apoM for 1 h. […] Scale bar, 20 μm. HUVEC were serum starved and stimulated for 5 min with 30 nM albumin-S1P, r-apoM-S1P, 10 μg/mL ApoM+ HDL, or 30 nM S1P-free r-apoM (E) or with increasing concentrations of albumin or r-apoM-S1P (F). […]
General Methods. […] Numerical differences were analyzed with two-tailed Student's t test. […]

VCAM-1 = experiment: TNFα-induced cell surface VCAM-1 expression in HUVEC by flow cytometry; assay type: cell-based, human; conditions: for suppression of cytokine-induced VCAM-1 expression: human endothelial cells (FIG. 9)
Protocol: FIG. 9. ApoM/S1P inhibition of endothelial cell VCAM-1 expression. Human umbilical vein endothelial cells (HUVEC) were treated with TNFα for 3 hr. Some cells were co-treated with recombinant (r)ApoM (100 nM) or rApoM/S1P complex (100 nM) or albumin/S1P complex (100 nM) for the same amount of time. The cells were then analyzed for the cell surface expression of Vascular cell adhesion molecule (VCAM)-1 by flow cytometry. Note that ApoM/S1P complex inhibited (˜40%) TNFα-induced VCAM-1 expression.
Inflammation of vascular endothelial cells is a critical initiating event in atherosclerosis, which leads to heart attacks and strokes. Endothelial cell inflammation is induced by cytokines such as TNFα and IL-1β. When endothelial cells are exposed to such cytokines, an inflammatory program of gene expression is induced, resulting in the formation of adhesion molecules such as VCAM-1, which in turn is needed for the recruitment of monocytes into the blood vessel wall. […] Thus, ApoM/S1P complexes can be used to suppress vascular inflammation as a potential treatment for atherosclerosis.

HUVEC [1] = experiment: adherens junction assembly assay (VE-cadherin immunostaining) in HUVEC; assay type: cell-based, human; conditions: HUVEC stimulated 1 h; HDL 100 μg/ml; S1P complexes or r-apoM 100 nM
Protocol: as §1, with “(F). Activation of p44/42 and Akt was examined by Western blot analysis using phospho-specific antibodies.” for “(F).”

HUVEC [2] = experiment: HUVEC migration (chemotaxis chamber) assay; assay type: cell-based, human
Protocol: as §1, with “μm.” for “μm. HUVEC were serum starved and stimulated for 5 min with 30 nM albumin-S1P, r-apoM-S1P, 10 μg/mL ApoM+ HDL, or 30 nM S1P-free r-apoM (E) or with increasing concentrations of albumin or r-apoM-S1P (F).”
General Methods. […] Numerical differences were analyzed with two-tailed Student's t test.
Migration Assays. […] The filter was scanned, and the color density of each well was quantified using ImageJ software. […]

T1 sequence (P21453 whole entry): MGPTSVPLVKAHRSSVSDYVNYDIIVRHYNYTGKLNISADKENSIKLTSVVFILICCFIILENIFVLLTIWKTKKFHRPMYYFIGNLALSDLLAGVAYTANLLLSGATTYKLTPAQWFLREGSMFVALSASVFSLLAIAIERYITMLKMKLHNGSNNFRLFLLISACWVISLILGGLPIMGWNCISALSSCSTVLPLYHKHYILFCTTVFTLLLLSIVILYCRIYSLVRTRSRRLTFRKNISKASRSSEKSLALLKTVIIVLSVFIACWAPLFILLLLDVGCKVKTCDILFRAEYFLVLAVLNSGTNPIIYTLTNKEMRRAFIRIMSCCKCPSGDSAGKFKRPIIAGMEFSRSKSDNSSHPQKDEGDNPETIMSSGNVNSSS

Molecule | internalization of GFP-S1P1 receptor (S1P1 receptor) | inhibition of TNFα-induced VCAM-1 expression (VCAM-1; 100 nM, co-treated with TNFα for 3 hr) | suppression of cytokine-induced VCAM-1 expression (VCAM-1) | adherens junction and F-actin formation (HUVEC [1]) | chemoattractant activity compared with albumin-bound S1P (HUVEC [2]; increasing concentrations (FIG. 4G)) | chemotaxis of HUVEC toward chemoattractant (HUVEC [2]; serum-starved HUVEC, 4 h at 37° C.)
B1 | induced robust internalization | ~40% | significant suppression | well-spread, contained F-actin and formed adherens junctions | slightly higher activity | worked as chemoattractants in a concentration-dependent manner
B2 | Neither apoM^−HDL nor r-apoM without S1P caused receptor internalization | – | not seen | not efficiently induced | – | –

Reference: US9592268B2, “Endothelium protective materials and methods of use” (CORNELL UNIVERSITY, priority 2011, dated 2017)
